Measured values as given in PMC9509318 (Nature Communications, 2022).

Assays:
Conditions in all cases: both partners purified
[1] = biological target: Pfs48/45-D2 + 3 (central and C-terminal domains) (Plasmodium falciparum, UniProt Q8I6T1); experiment: crystal structure
[2] = biological target: T1, Pfs48/45 full-length ectodomain (Plasmodium falciparum, UniProt Q8I6T1); experiment: negative stain electron microscopy
[3] = biological target: Pfs48/45-D3 (C-terminal 6-cys domain of Pfs48/45) (Plasmodium falciparum 3D7 …, UniProt Q8I6T1); experiment: SPR
Chain of Pfs48/45-D3 (C-terminal 6-cys domain of Pfs48/45) (Q8I6T1 291-428): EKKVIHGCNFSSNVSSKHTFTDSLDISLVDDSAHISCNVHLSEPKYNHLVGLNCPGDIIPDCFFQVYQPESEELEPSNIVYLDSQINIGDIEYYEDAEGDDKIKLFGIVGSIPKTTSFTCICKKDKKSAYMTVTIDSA

[4] = biological target: T1, Pfs48/45 full-length ectodomain; experiment: SPR

T1 sequence (Q8I6T1 27-427): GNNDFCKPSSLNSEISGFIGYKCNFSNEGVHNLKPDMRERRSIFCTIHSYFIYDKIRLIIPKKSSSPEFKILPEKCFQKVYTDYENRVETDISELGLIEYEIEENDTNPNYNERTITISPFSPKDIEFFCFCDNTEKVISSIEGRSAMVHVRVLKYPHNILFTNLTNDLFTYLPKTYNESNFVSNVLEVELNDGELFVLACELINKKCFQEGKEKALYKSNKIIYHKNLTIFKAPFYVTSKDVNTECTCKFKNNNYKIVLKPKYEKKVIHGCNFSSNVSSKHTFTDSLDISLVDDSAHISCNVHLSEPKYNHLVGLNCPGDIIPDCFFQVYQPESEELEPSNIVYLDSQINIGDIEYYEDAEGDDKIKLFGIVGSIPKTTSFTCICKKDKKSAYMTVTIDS
Chain of Pfs48/45-D2 + 3 (central and C-terminal domains) (Q8I6T1 159-428): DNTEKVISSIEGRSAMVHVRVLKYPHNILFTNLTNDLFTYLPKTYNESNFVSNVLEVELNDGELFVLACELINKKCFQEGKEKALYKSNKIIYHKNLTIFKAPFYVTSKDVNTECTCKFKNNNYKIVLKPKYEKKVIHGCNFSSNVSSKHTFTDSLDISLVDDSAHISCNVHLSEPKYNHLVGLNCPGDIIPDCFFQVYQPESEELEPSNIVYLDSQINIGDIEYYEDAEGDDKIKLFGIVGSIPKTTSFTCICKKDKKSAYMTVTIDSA

B1: 10D8 Fab fragment (Fab, V domains shown)
VH: EVMLVESGGDLVKPGGSLKVSCAASGFTFSNYAMSWVRQTPEKRLEWVATISSGASYTHYPDSVKGRFTISRDNAKNTLYLQMSSLRSEDTAMYYCGRQVNRHDRALDAMDYWGQGTSVTVSP
VL: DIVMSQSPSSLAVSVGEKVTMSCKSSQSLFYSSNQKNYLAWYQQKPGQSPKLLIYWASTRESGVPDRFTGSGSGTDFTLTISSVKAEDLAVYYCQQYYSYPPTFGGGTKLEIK
notes: source: hybridoma cell line, purified using protein A/G, ficin cleaved to Fab
- binding result [1]: binds
- binding result [2]: binds

B2: 32F3 monoclonal antibody (antibody, V domains shown)
VH: DVKLVESGGGLVKLGGSLKLSCAASGFTFSSYYMSWVRQTPEKRLELVAAINNNGGSTYYPDTVKGRFTISRDNAKNTLNLQMNSLKSEDTALYYCTRQHYGNLYFFDYWGQGTTLTVSS
VL: QIVLSQSPAILSASPGEKVTMTCRASSSVTYIHWYQQKPGSSPKPWIQATSSLASGVPARFSGSGSGTSYSLSISRVEAEDAATYYCQQWSSNPLTFGAGTKLELK
notes: source: hybridoma cell line, purified using protein A/G
- Kd [3]: 5.2 nM

B3: 10D8 monoclonal antibody (antibody, V domains shown)
VH: EVMLVESGGDLVKPGGSLKVSCAASGFTFSNYAMSWVRQTPEKRLEWVATISSGASYTHYPDSVKGRFTISRDNAKNTLYLQMSSLRSEDTAMYYCGRQVNRHDRALDAMDYWGQGTSVTVSP
VL: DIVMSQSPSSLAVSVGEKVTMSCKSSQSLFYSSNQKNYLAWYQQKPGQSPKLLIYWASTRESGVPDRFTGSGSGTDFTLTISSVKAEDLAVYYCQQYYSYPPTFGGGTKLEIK
notes: as for B2
- binding result [4]: binds
